Marks after values point to notes of the source that are not given here.
What was measured:
[1] = biological target: T1, recombinant human Flt-1 fusion protein (Homo sapiens, UniProt P17948); test: Free peptide binding and competition ELISA, Flt-1-coated wells; settings: free peptide
T1 construct: purchased R & D Systems
Experimental: (§1) Competition assays were done with 2.5 or 25 U/ml heparin (Sigma, St. Louis, Mo.). BP1, 3, 4, and a scrambled version of BP3 (scrBP3) were synthesized with a linker followed by the FLAG epitope ([…] SEQ ID NO:5) at the C-terminus. Thirty minutes after addition of the first reagent, the second reagent was added, followed by another 30 minute incubation. Peptide binding was assessed by probing for the FLAG epitope (Prickett et al., Biotechniques 7:580-9, 1989; Castrucci et al., J. Virol. 66:4647-53, 1992). Absorbance was read at 490 nm.

[2] = test system: MDA-MB-231 human breast cancer cells; test: MTT tumor cell viability assay, MDA-MB-231; type: cell-based; settings: 24 h
Experimental: (§2) MTT (3-(4,5-dimethylthiazolyl-2)-2,5-diphenyltetrazolium bromide, Sigma) assays were performed under conditions of low serum (1%) to determine PlGF effects on cell viability, the toxicity of the peptides, and their effect on PlGF-mediated breast tumor cell growth (Mosmann, 1983, J Immunol Meth 65:55-63; Modrak et al., 2000, Biochem Biophys Res Commun 268:603-606). Peptide concentration was 1-2 μM, and the concentration of exogenous PlGF was 2 nM. The human breast tumor lines tested were: MDA-MB-231, MDA-MB-468 and MCF-7 (ATCC, Mannasses, Va.). Briefly, 96-well plates were seeded with 5-10×10^4 cells/ml in medium containing 1% fetal bovine serum (FBS). After 24 h, cells were treated with individual peptides at a concentration of 1-2 μM (4 binding peptides), in quadruplicate, and/or rhuPlGF at a 2-nM concentration. After the designated time points, 0.5 mg/ml MTT (5 mg/ml stock diluted 1:10 in RPMI medium with no serum) was added to the wells (Mosmann, 1983). When purple crystals were clearly visible in the cells, and the plate appeared to be fully developed, the reaction was terminated with acid alcohol (0.04M HCl in isopropanol). Absorbance of the dissolved crystals was read at 570 nm. The 24-h time point was chosen because the in vitro effects of PlGF on tumor cell migration were measurable at this time (see wound-healing assay below). […]

[3] = test system: MCF-7 human breast cancer cells; type: cell-based
Experimental: MTT (3-(4,5-dimethylthiazolyl-2)-2,5-diphenyltetrazolium bromide, Sigma) assays were performed under conditions of low serum (1%) to determine PlGF effects on cell viability, the toxicity of the peptides, and their effect on PlGF-mediated breast tumor cell growth (Mosmann, 1983, J Immunol Meth 65:55-63; Modrak et al., 2000, Biochem Biophys Res Commun 268:603-606). Peptide concentration was 1-2 μM, and the concentration of exogenous PlGF was 2 nM. The human breast tumor lines tested were: MDA-MB-231, MDA-MB-468 and MCF-7 (ATCC, Mannasses, Va.). Briefly, 96-well plates were seeded with 5-10×10^4 cells/ml in medium containing 1% fetal bovine serum (FBS). After 24 h, cells were treated with individual peptides at a concentration of 1-2 μM (4 binding peptides), in quadruplicate, and/or rhuPlGF at a 2-nM concentration. After the designated time points, 0.5 mg/ml MTT (5 mg/ml stock diluted 1:10 in RPMI medium with no serum) was added to the wells (Mosmann, 1983). When purple crystals were clearly visible in the cells, and the plate appeared to be fully developed, the reaction was terminated with acid alcohol (0.04M HCl in isopropanol). Absorbance of the dissolved crystals was read at 570 nm. The 24-h time point was chosen because the in vitro effects of PlGF on tumor cell migration were measurable at this time (see wound-healing assay below). These assays were also performed using medium with 10% FBS, with similar results.

[4] = test system: PlGF-mediated angiogenesis in corneal tissues; test: Mouse corneal micropocket angiogenesis assay; type: in vivo, C57B16/J mice; settings: day 5; for effect on PlGF mediated angiogenesis in corneal tissues: micropellets, 100 ng PlGF with 1 μM peptide
Experimental: The ability of PlGF ligands to block PlGF-mediated angiogenesis in corneal tissues in vivo is investigated. Corneal micropockets are created using a modified von Graefe cataract knife in both eyes of male 5-6-wk-old C57B16/J mice. Micropellets comprised of a sustained release formulation of polyglucuronic acid/polylactic acid containing 100 ng of PlGF or PlGF with 1 μM BP-1, BP-2, BP-3 or BP-4 are implanted into each corneal pocket. Eyes are examined by a slit-lamp biomicroscope on day 5 after pellet implantation. Vessel length and neovascularization are measured.

PlGF = biological target: T2, PlGF (Homo sapiens, UniProt P49763); test: Free peptide binding ELISA (FLAG epitope probe), PlGF-coated wells; settings: free peptide; BP3, BP4, BP3scr at up to 50 μM
T2 construct: purchased R&D Systems
T2 sequence (P49763 19-170 isoform P49763-3 limits assumed): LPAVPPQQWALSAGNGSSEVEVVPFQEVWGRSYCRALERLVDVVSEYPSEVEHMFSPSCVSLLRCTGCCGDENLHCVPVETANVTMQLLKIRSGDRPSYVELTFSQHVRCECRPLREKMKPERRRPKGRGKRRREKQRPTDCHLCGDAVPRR
Experimental: as §1

MDA-MB-468 xenografts = type: in vivo, mice; settings: 200 μg/dose i.p., twice-weekly; for tumor growth inhibition: after 4 weeks
Experimental: FIG. 5. Treatment of mice bearing MDA-MB-468 xenografts with peptides BP1 or BP3. Mice were treated every 3-4 days with 200 ug BP as described in Methods. Tumor volume was measured 2×/week. *P<0.05 at days 10, 14, 17 and 24 (change in tumor volume (ANOVA)). FIG. 5A—tumors treated with binding peptide 1. FIG. 5B—tumors treated with binding peptide 3.
Mice bearing MDA-MB-468 xenografts (average tumor volume: 0.19 cm^3) were treated with i.p. injections of individual peptides (200 μg/dose) (FIG. 5). After 4 weeks of twice-weekly treatment, tumor growth was inhibited by 49% and 58% in mice treated with BP1 (FIG. 5A) or BP3 (FIG. 5B), respectively. The effect of BP3 on tumor growth was apparent after 2 weeks of treatment (FIG. 5B), whereas the inhibitory effect of BP1 was evident after one week (FIG. 5A). The average changes in individual tumor volumes during treatment with BP1 were significant (P<0.05) at days 10, 14, 17 and 24 (FIG. 5A). Treatment with BP2 was ineffective; tumors continued to grow at almost the same rate as the mock-treated controls (results not shown). BP4 treatment produced a 20% inhibition of tumor growth (results not shown).

[5] = test system: microvessels in PlGF-containing Matrigel plugs; test: Matrigel basement membrane plug angiogenesis assay; type: in vivo, nude mice
Text: To further investigate the effect of PlGF binding peptides on endothelial cell migration and angiogenesis, Matrigel basement membrane plugs containing PlGF, BP1, BP2, or PBS were implanted s.c. on the flanks of nude mice. The number of interior microvessels in the PBS controls was 16.2±11.4/mm^2. PlGF-only implants contained 28.9±17.2/mm^2 (1.8-fold vs. mock-treated implants), and implants with PlGF and BP1 contained only 12.3±13.0 microvessels/mm^2 (P<0.02).

MDA-MB-468 [6] = test: Wound-healing (motility) assay, MDA-MB-468; type: cell-based, human
Experimental: (§3) MCF-7, MDA-MB-23 1, and MDA-MB-468 breast tumor cell lines or HECs were seeded onto sterile glass coverslips in Petri dishes or six-well plates. When the cells were 70-80% confluent, the monolayers were scratched with a sterile plastic pipet tip.
(§4) Inhibitor concentrations were 50 μM PD98059 (PD98) (mitogen activated protein kinase-kinase 1 [MEK1] inhibitor), 5 nM Wortmannin (phosphatidyl inositol 3 kinase [PI3K] inhibitor), or human recombinant soluble Flt-1 (sFlt-1) (R&D Systems). […] Cells were pre-incubated with PD98 and Wortmannin for 15-30 min before addition of PlGF. Stained (Wright-Giemsa) and mounted coverslips were examined microscopically. Five to ten 100× fields were evaluated by counting the number of cells separated from the wound edges and which appeared to be migrating toward the center of the wound. Results are reported as the average number of cells migrating into the wound/100× field. In some cases data from separate experiments were combined to accommodate inclusion of various treatments in the tables.
(§5) Antibody concentration was 1 μg/ml. MEK1 inhibitor, PD98059 (PD98), 50 μM. PI3K inhibitor, Wortmannin, 5 nM. […] Values for antibody and inhibitor treatments were from separate experiments which included all relevant controls. […] UT denotes untreated controls. *P<0.01 (ANOVA) compared to UT; † P<0.02 (ANOVA) compared to PlGF only. ‡ P<0.001 (ANOVA) compared to PlGF only.

MDA-MB-468 [7] = test: Matrigel cell invasion assay, MDA-MB-468; type: cell-based, human; settings: PlGF 0.2 nM ± peptide 2 μg/ml; 48 h
Experimental: (§6) Cellular invasion was determined by addition of 5×10^4cells to growth factor-reduced Matrigel invasion chambers (BD Biosciences Discovery Labware, Bedford, Mass.) (Taylor et al., 2003b; Passaniti et al., 1992, Lab Invest 67, 519-528). Additives to the Matrigel® plugs were pre-incubated together in a total volume of 100 μl PBS at RT for 10 min, after which each additive was added to the Matrigel. Growth factors (2.0 or 0.2 nM), peptide (2 μg/ml), or antibody (1 μg/ml) were added to cells in low serum (0.1% fetal bovine serum [FBS]) medium. Baseline and chemoattractant-based invasion (10% FBS) were included. The number of invading cells was determined by counting the number of cells on the bottom of the invasion chamber membrane after staining at 100× magnification after 24 h (MDA-MB-231) or 48 h (MCF-7, MDA-MB-468). The results of three to five separate experiments are presented.

[8] = test system: MDA-MB-468 human breast cancer cells; test: MTT tumor cell viability assay, MDA-MB-468; type: cell-based; settings: peptide 2 μM or PlGF 2 nM alone, 24 h
Experimental: as §2

MCF-7 [9] = test: Wound-healing (motility) assay, MCF-7; type: cell-based, human
Experimental: as §3, §4, §5

MDA-MB-231 [10] = test: Matrigel cell invasion assay, MDA-MB-231; type: cell-based, human; settings: 24 h
Experimental: as §6

MDA-MB-231 [11] = test: Wound-healing (motility) assay, MDA-MB-231; type: cell-based, human
Experimental: as §3, §4, §5

MCF-7 [12] = test: Matrigel cell invasion assay, MCF-7; type: cell-based, human; settings: PlGF 0.2 nM ± peptide 2 μg/ml; 48 h
Experimental: as §6

[13] = PlGF 2 nM ± test agent, relative to PlGF-only value
[14] = growth factor PlGF 2 nM ± test agent (Flt-1 2 nM, peptide 2 μM, antibody 1 μg/ml), 18-24 h

T1 sequence (P17948 with tags, fused parts or gaps limits assumed): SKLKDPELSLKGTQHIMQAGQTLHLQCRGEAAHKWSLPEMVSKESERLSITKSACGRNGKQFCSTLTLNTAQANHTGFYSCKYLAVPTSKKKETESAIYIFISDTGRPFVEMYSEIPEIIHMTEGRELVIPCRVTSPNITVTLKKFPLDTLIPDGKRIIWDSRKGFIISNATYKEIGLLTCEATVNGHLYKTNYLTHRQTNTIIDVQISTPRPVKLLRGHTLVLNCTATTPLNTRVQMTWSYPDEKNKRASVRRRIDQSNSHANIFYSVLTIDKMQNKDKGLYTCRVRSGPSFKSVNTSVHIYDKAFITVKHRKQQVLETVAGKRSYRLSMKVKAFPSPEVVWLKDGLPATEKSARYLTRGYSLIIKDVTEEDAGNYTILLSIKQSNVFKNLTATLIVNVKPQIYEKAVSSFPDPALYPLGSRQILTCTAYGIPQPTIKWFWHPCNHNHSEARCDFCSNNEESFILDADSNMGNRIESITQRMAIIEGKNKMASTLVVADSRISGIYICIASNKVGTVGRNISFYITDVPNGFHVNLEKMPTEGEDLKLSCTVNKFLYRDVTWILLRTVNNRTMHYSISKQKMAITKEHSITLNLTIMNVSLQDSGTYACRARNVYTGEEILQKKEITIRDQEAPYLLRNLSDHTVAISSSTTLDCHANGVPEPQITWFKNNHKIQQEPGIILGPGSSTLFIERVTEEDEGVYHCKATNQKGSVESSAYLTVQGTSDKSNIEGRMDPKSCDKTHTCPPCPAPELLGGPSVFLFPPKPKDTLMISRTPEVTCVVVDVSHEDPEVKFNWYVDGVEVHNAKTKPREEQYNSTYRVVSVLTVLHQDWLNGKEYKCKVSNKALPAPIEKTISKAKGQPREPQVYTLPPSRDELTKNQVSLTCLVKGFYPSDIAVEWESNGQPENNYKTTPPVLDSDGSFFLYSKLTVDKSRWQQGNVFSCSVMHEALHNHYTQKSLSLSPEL

QEAFNRLTSRMH (listed as Homo sapiens) [BP3]
binding to Flt-1 (in words) [1]: No measurable binding | effect on viability of PlGF-containing MDA-MB-231 cultures ([2]; PlGF 2 nM + peptide 1-2 μM, 1% serum): significant reduction in cell viability | effect on viability after 48 h, peptide alone ([3]; peptide alone, 48 h, vs untreated controls): lost viability | effect on PlGF mediated angiogenesis in corneal tissues [4]: inhibits | binding to PlGF (in words) (PlGF): did not bind detectably | duration of treatment after which effect on tumor growth was apparent (MDA-MB-468 xenografts): 2 weeks | tumor growth inhibition (MDA-MB-468 xenografts): 58%

RMPYSEHSAPLG (listed as Homo sapiens) [BP4]
binding to Flt-1 (in words) [1]: No measurable binding | effect on viability of PlGF-containing MCF-7 cultures ([3]; PlGF 2 nM + peptide 1-2 μM, 24 h, 1% serum): significant reduction in cell viability | effect on PlGF mediated angiogenesis in corneal tissues [4]: inhibits | binding to PlGF (in words) (PlGF): did not bind detectably | tumor growth inhibition (MDA-MB-468 xenografts): 20%

B1: PlGF: recombinant human PlGF-2, placental growth factor (R&D Systems) (protein)
chain: LPAVPPQQWALSAGNGSSEVEVVPFQEVWGRSYCRALERLVDVVSEYPSEVEHMFSPSCVSLLRCTGCCGDENLHCVPVETANVTMQLLKIRSGDRPSYVELTFSQHVRCECRPLREKMKPERRRPKGRGKRRREKQRPTDCHLCGDAVPRR
interior microvessels ([5]; PlGF-containing implants ± BP1, s.c., PBS controls 16.2±11.4): 28.9±17.2 /mm^2 | microvessels, fold vs. mock-treated implants ([5]; PlGF-only implants): 1.8 fold | Relative activity (MDA-MB-468 [6]; [13]): 100 | effect on motility (in words) (MDA-MB-468 [6]; exogenous PlGF): did not significantly affect | Migrating cells (MDA-MB-468 [6]; [14]): 14.7 ± 9.8 cells/100× field | Average fold-change in the number of cells on the membrane compared to untreated controls (MDA-MB-468 [7]): 1.8 ± 0.3 fold | effect on cell viability / cell number, agent alone ([2]; peptide 2 μM or PlGF 2 nM alone): increased cell numbers | effect on cell viability / cell number, agent alone [8]: increased cell numbers | Relative activity (MCF-7 [9]; [13]): 100 | increase in motility (MCF-7 [9]; exogenous PlGF): 1.8-2.1 fold | Migrating cells (MCF-7 [9]; [14]): 22.1 ± 13.4* cells/100× field | Average fold-change in the number of cells on the membrane compared to untreated controls (MDA-MB-231 [10]; PlGF 0.2 nM ± peptide 2 μg/ml): 4.0 ± 2.2 fold | invading cells (MDA-MB-231 [10]; PlGF 0.2 nM): 28±12 cells | invading cells (MDA-MB-231 [10]; PlGF 2.0 nM): 30±13.7 cells | increased invasion (MDA-MB-231 [10]; PlGF at both 2.0 and 0.2 nM): ~3 fold | Relative activity (MDA-MB-231 [11]; [13]): 100 | increase in motility (MDA-MB-231 [11]; exogenous PlGF): 1.8-2.1 fold | Migrating cells (MDA-MB-231 [11]; growth factor PlGF 2 nM ± test agent (Flt-1 2 nM, peptide 2 μM, antibody 1 μg/ml, PD98059 50 μM, Wortmannin 5 nM), 18-24 h): 42.0 ± 13.3* cells/100× field | angiogenic response in cornea ([4]; micropellets with 100 ng PlGF): induces a strong angiogenic response | Average fold-change in the number of cells on the membrane compared to untreated controls (MCF-7 [12]): 2.1 ± 0.7 fold
